Results on three substances are retold here after patent US6884600.

For assay [1], the target named is PP1GL, glycogen-associated form of PP1 in rat hepatic glycogen-protein particles (rat). Kind of assay: cell-based or functional assay.
Assay [2] deals with myosin from chicken gizzard, dephosphorylated form (chicken) (UniProt P10587). Kind of assay: co-sedimentation with M21 in excess (10-50 µM M21, 1 µM myosin), Coomassie-stained gel.
Assay [3] has the same target. Kind of assay: co-sedimentation, 30 nM PP1M with 1 µM myosin.

myosin from chicken gizzard, dephosphorylated form (chicken), sequence (P10587 2-1979, chain 1 of 3): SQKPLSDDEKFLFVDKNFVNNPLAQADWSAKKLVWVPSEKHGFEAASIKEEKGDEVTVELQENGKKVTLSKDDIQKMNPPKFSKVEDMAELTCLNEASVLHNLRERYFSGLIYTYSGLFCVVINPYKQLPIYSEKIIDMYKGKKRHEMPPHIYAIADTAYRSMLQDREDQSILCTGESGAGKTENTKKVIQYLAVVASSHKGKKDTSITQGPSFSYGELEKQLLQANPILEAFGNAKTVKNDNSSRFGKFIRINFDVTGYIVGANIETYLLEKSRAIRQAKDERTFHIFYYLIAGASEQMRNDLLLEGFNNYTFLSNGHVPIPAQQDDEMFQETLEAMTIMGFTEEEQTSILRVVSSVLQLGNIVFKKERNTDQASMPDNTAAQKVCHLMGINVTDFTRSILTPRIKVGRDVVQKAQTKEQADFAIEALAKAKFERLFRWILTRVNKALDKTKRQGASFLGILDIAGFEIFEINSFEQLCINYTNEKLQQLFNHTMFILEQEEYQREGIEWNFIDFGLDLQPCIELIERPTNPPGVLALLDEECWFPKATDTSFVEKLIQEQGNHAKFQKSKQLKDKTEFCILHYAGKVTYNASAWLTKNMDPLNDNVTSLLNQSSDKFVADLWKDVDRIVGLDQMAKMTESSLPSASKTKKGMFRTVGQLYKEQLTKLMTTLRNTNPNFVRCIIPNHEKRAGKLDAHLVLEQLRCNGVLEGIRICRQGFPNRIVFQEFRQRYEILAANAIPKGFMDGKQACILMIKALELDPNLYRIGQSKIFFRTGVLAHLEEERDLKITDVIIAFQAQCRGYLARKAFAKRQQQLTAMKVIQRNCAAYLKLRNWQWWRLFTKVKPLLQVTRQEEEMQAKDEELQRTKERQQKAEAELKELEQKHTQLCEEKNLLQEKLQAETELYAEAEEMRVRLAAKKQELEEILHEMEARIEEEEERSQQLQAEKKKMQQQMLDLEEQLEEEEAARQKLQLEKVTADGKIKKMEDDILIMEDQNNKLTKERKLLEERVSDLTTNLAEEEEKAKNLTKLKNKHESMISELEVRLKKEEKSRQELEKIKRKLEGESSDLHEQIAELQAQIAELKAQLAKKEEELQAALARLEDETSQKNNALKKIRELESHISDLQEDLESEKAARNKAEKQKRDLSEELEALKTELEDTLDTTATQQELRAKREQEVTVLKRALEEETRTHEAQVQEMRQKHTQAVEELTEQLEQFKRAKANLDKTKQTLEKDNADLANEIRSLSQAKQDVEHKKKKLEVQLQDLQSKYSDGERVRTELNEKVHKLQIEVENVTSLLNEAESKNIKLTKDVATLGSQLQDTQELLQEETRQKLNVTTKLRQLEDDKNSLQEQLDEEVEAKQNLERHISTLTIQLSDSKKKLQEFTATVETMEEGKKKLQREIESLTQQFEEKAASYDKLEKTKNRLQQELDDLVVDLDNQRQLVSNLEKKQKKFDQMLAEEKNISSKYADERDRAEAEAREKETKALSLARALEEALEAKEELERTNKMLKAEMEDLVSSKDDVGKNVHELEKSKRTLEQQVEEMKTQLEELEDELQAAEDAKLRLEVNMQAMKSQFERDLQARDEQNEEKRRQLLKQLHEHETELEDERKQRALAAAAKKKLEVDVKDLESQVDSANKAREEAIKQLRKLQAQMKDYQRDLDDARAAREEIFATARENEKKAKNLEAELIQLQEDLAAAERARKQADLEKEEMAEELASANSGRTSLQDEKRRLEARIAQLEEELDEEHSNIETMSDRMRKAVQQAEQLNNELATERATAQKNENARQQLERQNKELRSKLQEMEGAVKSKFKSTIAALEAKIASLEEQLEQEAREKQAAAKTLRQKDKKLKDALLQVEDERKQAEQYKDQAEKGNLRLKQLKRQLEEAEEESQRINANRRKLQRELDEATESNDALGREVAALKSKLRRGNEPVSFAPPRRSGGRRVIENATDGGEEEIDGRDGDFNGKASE
myosin from chicken gizzard, dephosphorylated form (chicken), sequence (P02612 2-172, chain 2 of 3, further chain): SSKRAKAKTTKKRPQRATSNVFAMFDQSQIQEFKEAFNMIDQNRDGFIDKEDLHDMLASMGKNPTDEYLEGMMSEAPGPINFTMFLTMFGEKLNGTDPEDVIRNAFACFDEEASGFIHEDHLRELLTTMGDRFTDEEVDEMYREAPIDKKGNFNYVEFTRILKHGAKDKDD
myosin from chicken gizzard, dephosphorylated form (chicken), sequence (P02607 2-151, chain 3 of 3, further chain): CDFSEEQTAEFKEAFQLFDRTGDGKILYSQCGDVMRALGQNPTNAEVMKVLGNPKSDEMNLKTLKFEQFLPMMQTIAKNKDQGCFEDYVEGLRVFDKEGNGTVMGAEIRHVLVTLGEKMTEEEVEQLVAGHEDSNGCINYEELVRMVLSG
PP1M, myosin-associated form of PP1 from chicken gizzard, sequence (P62207 2-327): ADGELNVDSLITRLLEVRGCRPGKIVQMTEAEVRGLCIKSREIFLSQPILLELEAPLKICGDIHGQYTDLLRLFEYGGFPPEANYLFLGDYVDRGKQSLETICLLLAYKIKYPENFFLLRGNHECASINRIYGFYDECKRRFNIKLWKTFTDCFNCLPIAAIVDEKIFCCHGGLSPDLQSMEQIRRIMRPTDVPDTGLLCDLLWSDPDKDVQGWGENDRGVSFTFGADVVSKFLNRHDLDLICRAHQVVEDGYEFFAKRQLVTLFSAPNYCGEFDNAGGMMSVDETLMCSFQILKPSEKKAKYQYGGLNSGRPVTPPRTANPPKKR
PP1M, myosin-associated form of PP1 from chicken gizzard, sequence (chain): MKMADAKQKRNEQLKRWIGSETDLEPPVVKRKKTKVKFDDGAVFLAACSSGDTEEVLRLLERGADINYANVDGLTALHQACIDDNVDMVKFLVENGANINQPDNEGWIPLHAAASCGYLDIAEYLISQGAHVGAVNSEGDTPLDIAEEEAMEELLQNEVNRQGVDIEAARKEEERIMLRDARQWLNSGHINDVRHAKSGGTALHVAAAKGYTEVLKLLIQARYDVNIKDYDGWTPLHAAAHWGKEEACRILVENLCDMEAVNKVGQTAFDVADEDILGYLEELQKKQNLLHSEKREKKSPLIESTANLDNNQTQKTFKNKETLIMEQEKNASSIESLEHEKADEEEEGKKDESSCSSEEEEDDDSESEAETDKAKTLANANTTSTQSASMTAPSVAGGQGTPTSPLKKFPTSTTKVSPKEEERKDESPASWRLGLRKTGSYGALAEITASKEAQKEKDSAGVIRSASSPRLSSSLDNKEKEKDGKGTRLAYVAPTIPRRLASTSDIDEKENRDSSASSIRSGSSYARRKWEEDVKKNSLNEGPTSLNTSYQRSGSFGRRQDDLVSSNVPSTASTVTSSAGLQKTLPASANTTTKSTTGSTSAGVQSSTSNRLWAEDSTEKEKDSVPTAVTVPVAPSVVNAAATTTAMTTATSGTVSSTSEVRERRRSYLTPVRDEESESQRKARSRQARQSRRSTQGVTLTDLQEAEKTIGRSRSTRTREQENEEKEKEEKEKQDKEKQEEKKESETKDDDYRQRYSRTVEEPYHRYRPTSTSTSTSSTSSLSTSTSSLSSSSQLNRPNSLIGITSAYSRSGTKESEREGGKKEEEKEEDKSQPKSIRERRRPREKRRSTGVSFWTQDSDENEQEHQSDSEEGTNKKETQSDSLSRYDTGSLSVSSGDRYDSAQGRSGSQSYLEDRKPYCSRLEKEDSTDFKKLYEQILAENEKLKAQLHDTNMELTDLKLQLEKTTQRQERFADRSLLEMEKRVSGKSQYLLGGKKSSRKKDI

With “GM[G63-N75] variant with Val 66 changed to Ala (peptide)”, the effectiveness of disruption of the PP1-GL complex relative to wild type GM[63-75] in assay [1] was 100 fold.

In assay [2], “M21 subunit of chicken gizzard PP1M, full length (M1-K186)” came in with a moles of M21 subunit bound to each myosin dimer (mol/mol myosin dimer) above 20.

In assay [3], “PP1M, myosin-associated form of PP1 from chicken gizzard (from UniProt P62207 2-327) (enzyme)” registered a percent of myosin P-light chain phosphatase recovered in the myosin pellet of 85%.
